The subject of assay [1] is DYT-TOR1A MEF EVs. The assay is described as follows: Quantitative LC-MS/MS proteomics of EVs from drug-treated DYT-TOR1A MEF cultures (ritonavir, salubrinal). The class given is cell-based, mouse. Set-up: key to RTV Corrective Direction / RTV Corrective Direction, Grwd1 / RTV Corrective Direction, Srrm2 / RTV Corrective Direction, Rbm17 / RTV Corrective Direction, Dcaf8 / RTV Corrective Direction, Edil3 / RTV Corrective Direction, Timp3 / RTV Corrective Direction, Heatr3 / RTV Corrective Direction, Brd4 / RTV Corrective Direction, P3h4 / RTV Corrective Direction, Pacsin3 / RTV Corrective Direction, Naa50 / RTV Corrective Direction, Lpar6 / RTV Corrective Direction, Ndrg1 / RTV Corrective Direction, Kntc1 / RTV Corrective Direction, Cdk11b / RTV Corrective Direction, Sumo1 / RTV Corrective Direction, Lsm4 / RTV Corrective Direction, Hmga2 / RTV Corrective Direction, Cstf1 / RTV Corrective Direction, Tes / RTV Corrective Direction, Sbno1 / RTV Corrective Direction, Unc119b / RTV Corrective Direction, Cfdp1 / RTV Corrective Direction, Sec61b: YES = protein abundance effect opposite to DYT/WT. Particulars: EV protein abundance; for RTV Corrective Direction: DYT + RTV (ritonavir) vs DYT, direction compared with DYT/WT; for DYT + RTV/DYT Cohen's d: ritonavir (RTV)-treated DYT vs DYT.

Assay [2] relates to WT MEF EVs. In words: Quantitative LC-MS/MS proteomics of EVs from ISRIB-treated WT MEF cultures. The class given is cell-based, mouse. Also on record: key to ISRIB and DYT Parallel Direction / ISRIB and DYT Parallel Direction, Ctdsp1 / ISRIB and DYT Parallel Direction, Pcdh19 / ISRIB and DYT Parallel Direction, Tspan7 / ISRIB and DYT Parallel Direction, Myo1e / ISRIB and DYT Parallel Direction, Plpp3 / ISRIB and DYT Parallel Direction, Sh3bp4 / ISRIB and DYT Parallel Direction, Dnajc7 / ISRIB and DYT Parallel Direction, Drg1 / ISRIB and DYT Parallel Direction, Maea: YES = protein abundance effect similar to DYT/WT. The note with it: EV protein abundance; for WT + ISRIB/WT Cohen's d: ISRIB-treated WT vs WT; for ISRIB and DYT Parallel Direction: WT + ISRIB vs WT, direction compared with DYT/WT.

B1: Fth1 (protein, UniProt P09528 1-182, looked up)
Ferritin heavy chain: MTTASPSQVRQNYHQDAEAAINRQINLELYASYVYLSMSCYFDRDDVALKNFAKYFLHQSHEEREHAEKLMKLQNQRGGRIFLQDIKKPDRDDWESGLNAMECALHLEKSVNQSLLELHKLATDKNDPHLCDFIETYYLSEQVKSIKELGDHVTNLRKMGAPEAGMAEYLFDKHTLGHGDES
Regarding B1, in assay [1], the “RTV Corrective Direction” value is on record as “YES” and the “DYT + RTV/DYT Cohen's d” value was determined as 0.31. Besides, in assay [2], the “WT + ISRIB/WT Cohen's d” value is recorded as −3.46; the “ISRIB and DYT Parallel Direction” value is listed as “YES”.

B2: Ssbp1 (protein, UniProt Q9CYR0 17-152, looked up)
Single-stranded DNA-binding …: ESEVASSLVLERSLNRVQLLGRVGQDPVMRQVEGKNPVTIFSLATNEMWRSGDSEVYQMGDVSQKTTWHRISVFRPGLRDVAYQYVKKGARIFVEGKVDYGEYMDKNNVRRQATTIIAGKKLVVHSVSGCSLEGLA
As to B2, in assay [1], the “RTV Corrective Direction” value was “YES” and the “DYT + RTV/DYT Cohen's d” value was found to be 3.30. Also, in assay [2], the “WT + ISRIB/WT Cohen's d” value was −1.49; the “ISRIB and DYT Parallel Direction” value was “YES”.

B3: Qars (protein, UniProt Q8BML9 2-775, looked up)
Glutamine--tRNA ligase: ATPDSLALFTGLGLSENKARETLKNEALSTQLREAATQAHQILGSTIDKATGVLLYDLVSRLRDTRRRSFLVSYIANKKIHTGLQLSAALEYVRSHPQDPIDTKDFEQECGVGVVVTPEQIEEAVESTINKHQLQLLAERYRFNMGLLMGEARAALRWADGKMIKNEVDMQVLHLLGPKMEADLVKKPKVAKARLEETDRKTAKDVVEKGEVAGQTLSLMEQLRGEALKFHKPGENYKTPGYVITPYTMDLLKQHLEITGGQVRTRFPPEPNGILHIGHAKAINFNFGYAKANNGICFLRFDDTNPEKEEAKFFTAIYDMVTWLGYTPYKVTYASDYFDQLYAWAVELIHGGLAYVCHQRVEELKGHNPLPSPWRDRPKEESLLLFEAMRKGKFAEGEATLRMKLVMEDGKMDPVAYRVKYTPHHRTGDKWCIYPTYDYTHCLCDSIEHITHSLCTKEFQARRSSYFWLCNALKVYCPVQWEYGRLNLHYAVVSKRKILQLVAAGAVRDWDDPRLFTLTALRRRGFPPEAINNFCARVGVTVAQTTMEPHLLEACVRDVLNDAAPRAMAVLEPLQVVITNFPAPKPLDIRVPNFPADETKGFHQVPFASTVFIERSDFKEESEPGYKRLASGQPVGLRHTGYVIELQNIVRGSSGCVERLEVTCRRADAGEKPKAFIHWVSQPLVCEIRLYECLFQHKNPEDPVEVPGGFLSDLNPASLQVVEGALVDCSVALAKPFDKFQFERLGYFSVDPDSHQGQIVFNRTVTLKEDPGKI
With B3, in assay [1], the “RTV Corrective Direction” value is reported as “YES” and the “DYT + RTV/DYT Cohen's d” value is given as 7.21. Further, in assay [2], the “WT + ISRIB/WT Cohen's d” value is −2.14; the “ISRIB and DYT Parallel Direction” value is recorded as “YES”.

B4: Sec23a (protein, UniProt Q01405 2-765, looked up)
Protein transport protein …: TTYLEFIQQNEERDGVRFSWNVWPSSRLEATRMVVPVAALFTPLKERPDLPPIQYEPVLCSRTTCRAVLNPLCQVDYRAKLWACNFCYQRNQFPPTYAGISELNQPAELLPQFSSIEYVVLRGPQMPLIFLYVVDTCIEDEDLQALKESMQMSLSLLPPTALVGLITFGRMVQVHELGCEGISKSYVFRGTKDLSAKQLQEMLGLSKVPVTQATRGPQVQQPPPSNRFLQPVQKIDMNLTDLLGELQRDPWPVPQGKRPLRSSGVALSIAVGLLECTFPNTGARIMMFIGGPATQGPGMVVGDELKTPIRSWHDIEKDNAKYVKKGTKHFEALANRAATTGHVIDIYACALDQTGLLEMKCCPNLTGGYMVMGDSFNTSLFKQTFQRVFTKDIHGQFKMGFGGTLEIKTSREIKISGAIGPCVSLNSKGPCVSENEIGTGGTCQWKICGLSPTTTLAIYFEVVNQHNAPIPQGGRGAVQFVTQYQHSSGQRRIRVTTIARNWADAQTQIQNIAASFDQEAAAILMARLAIYRAETEEGPDVLRWLDRQLIRLCQKFGEYHKDDPNSFRFSETFSLYPQFMFHLRRSPFLQVFNNSPDESSYYRHHFMRQDLTQSLIMIQPILYAYSFSGPPEPVLLDSSSILADRILLMDTFFQILIYHGETIAQWRKSGYQDMPEYENFRHLLQAPVDDAQEILHSRFPMPRYIDTEHGGSQARFLLSKVNPSQTHNNMYAWGQESGAPILTDDVSLQVFMDHLKKLAVSSAA
Regarding B4, in assay [1], the “RTV Corrective Direction” value is “YES” and the “DYT + RTV/DYT Cohen's d” value is given as 8.14. In addition, in assay [2], the “WT + ISRIB/WT Cohen's d” value is reported as −0.95; the “ISRIB and DYT Parallel Direction” value is given as “YES”.

B5: Dctn2 (protein, UniProt Q99KJ8 2-402, looked up)
Dynactin subunit 2: ADPKYADLPGIARNEPDVYETSDLPEDDQAEFDAEELSSTSVEHIIVNPNAAYDKFKDKRVGTKGLDFSDRIGKTKRTGYESGDYEMLGEGLGVKETPQQKYQRLLHEVQELTTEVEKIKTTVKESATEEKLTPVVLAKQLAALKQQLVASHLEKLLGPDAAINLADPDGALAKRLLLQLEATKSSKGSSGGKATAGAPPDSSLVTYELHSRPEQDKFSQAAKVAELEKRLTELEATVRCDQDAQNPLSAGLQGACLMETVELLQAKVSALDLAVLDQVEARLQSVLGKVNEIAKHKASVEDADTQNKVHQLYETIQRWSPVASTLPELVQRLVTIKQLHEQAMQFGQLLTHLDTTQQMMASSLKDNTALLTQVQTTMRENLATVEGNFASIDARMKRLGK
For the molecule B5, in assay [1], the “RTV Corrective Direction” value was “YES” and the “DYT + RTV/DYT Cohen's d” value is 5.51. Also, in assay [2], the “WT + ISRIB/WT Cohen's d” value is given as −0.53; the “ISRIB and DYT Parallel Direction” value is “YES”.

B6: Plaa (protein, UniProt P27612 1-794, looked up)
Phospholipase A-2-activating …: MASGASRYRLSCSLPGHELDVRGLVCCLYPPGAFVSVSRDRTTRLWAPDSPNRGFTEMHCMSGHSNFVSCVCIIPSSDIYPHGLIATGGNDHNICIFSLDSPMPLYILKGHKDTVCSLSSGKFGTLLSGSWDTTAKVWLNDKCMMTLQGHTAAVWAVKILPEQGLMLTGSADKTIKLWKAGRCERTFLGHEDCVRGLAILSETEFLSCANDASIRRWQITGECLEVYFGHTNYIYSISVFPNSKDFVTTAEDRSLRIWKHGECAQTIRLPAQSIWCCCVLENGDIVVGASDGIIRVFTESEERTASAEEIKAFERELSQATIDSKTGDLGDINAEQLPGREHLSEPGTREGQTRLIRDGERVEAYQWSVSDGRWIKIGDVVGSSGANQQTSGKVLYEGKEFDYVFSIDVNEGGPSYKLPYNVSDDPWLVAYNFLQKNDLNPMFLDQVAKFIIDNTKGQTLGLGNTSFSDPFTGGGRYVPGTSGPSNTVQTADPFTGAGRYMPGSAGMDTTMTGVDPFTGNSAYRSAASKTVNIYFPKKEALTFDQANPTQILGKLKELNGTAPEEKKLTEDDLVLLEKILSLICNNSSEKPTAQQLQILWKAINWPEDIVFPALDILRLSIKHPNVNENFCNEKGDQFSSHLINLLNPKGKPANQLLALRTFCNCFVSQAGQKLMMSQRESLMSHAIELKSGSNKNIHIALATLTLNYSVCFHKDHNIEGKAQCLSVISTILEVVQDLEATFRLLVALGTLISDDSNAIQLAKSLGVDSQIKKYVSVSEPAKVSECCRLVLHLL
For B6, in assay [1], the “RTV Corrective Direction” value was “YES” and the “DYT + RTV/DYT Cohen's d” value came out at 8.69. Besides, in assay [2], the “WT + ISRIB/WT Cohen's d” value is recorded as −2.39; the “ISRIB and DYT Parallel Direction” value is listed as “YES”.

B7: Ipo11 (protein, UniProt Q8K2V6 1-975, looked up)
Importin-11: MDLNSASSVVLQVLTQATSQDTAVLKPAEEQLKQWETQPGFYSVLLNIFTNHTLDINVRWLAVLYFKHGIDRYWRRVAPHALSEEEKSTLRAGLITNFNEPINQIATQIAVLIAKVARLDCPRQWPELIPTLVESVKVQDDLRQHRALLTFYHVTKTLASKRLAADRKLFYDLASGIYNFACSLWNHHTDTFLQHVSSGNEAAVLSSLERTLLSLKVLRKLTVNGFVEPHKNMEVMGFLHGIFERLKQFLECSRSIGTDNVCRDRLEKTIILFTKVLLDFLDQHPISFTPLIQRSLEFSVSYVFTEVGEGVTFERFIVQCMNLIKMIVKNYAYKPSKNFEDSSPETLEAHKIKMAFFTYPTLTEICRRLVSHYFLLTEEELTMWEEDPEGFTVEETGGDSWKYSLRPCTEVLFIDIFHEYNQTLTPVLLEMMQTLEGPTNVEDMNALLIKDAVYNAVGLAAFELFDSVDFDQWFKTQLLPELQVSHNRYKPLRRRVIWLIGQWISVKFKSDLRPMLYEAICNLLQDQDLVVRIETATTLKLTVDDFEFRTDQFLPYLETMFTLLFQLLQQVTECDTKMHVLHVLSCVIERVNVQIRPYVGCLVQYLPLLWKQSEEHNMLRCAILTTLIHLVQGLGADSKNLYPFLLPVIQLSTDVSQPPHVYLLEDGLELWLVTLENSPCVTPELLRIFQNMSPLLELSSENLRTCFKIINGYIFLSSTEFLQTYAAGLCQSFYELLPEITTEGQVQVLKVVENALKVNPVLGPQMFQRILPCVFRGVIEGERYPVVMSIYLAVMGRVLLQNTSFFSSLLNEMGHEFNQEMDQLLGNVIEMWVDRMDNITQPERKKLSALALLSLLPSDNSVIQDKFCGIINISVEALHDVMTEDPETRTYKDCMLMSQHEEPKVTEDEEPPTEQDKRKKMLALKDPVHTVSLQQFIYEKLKAQQEILGEQGFQSLMETVDTEIVTQLQEFLQGF
As for B7, in assay [1], the “RTV Corrective Direction” value is on record as “YES” and the “DYT + RTV/DYT Cohen's d” value was 9.75. Moreover, in assay [2], the “WT + ISRIB/WT Cohen's d” value is listed as −1.97; the “ISRIB and DYT Parallel Direction” value is given as “YES”.

(Values after patent US20260266848A1, “COMPOSITIONS AND METHODS FOR DIAGNOSING AND TREATING DYSTONIA” (Duke University, priority 2023, published 2026).)
